This data set deals with the molecule itself. Nature of the data set: SEC. (Size exclusion chromatography separates by hydrodynamic size, large species first.)

B1: GCN2^K619R, kinase dead mutant of human General Control Non-derepressible 2 (GCN2) (enzyme, UniProt Q9P2K8 1-1649, looked up)
chain: MAGGRGAPGRGRDEPPESYPQRQDHELQALEAIYGADFQDLRPDACGPVKEPPEINLVLYPQGLTGEEVYVKVDLRVKCPPTYPDVVPEIELKNAKGLSNESVNLLKSRLEELAKKHCGEVMIFELAYHVQSFLSEHNKPPPKSFHEEMLERRAQEEQQRLLEAKRKEEQEQREILHEIQRRKEEIKEEKKRKEMAKQERLEIASLSNQDHTSKKDPGGHRTAAILHGGSPDFVGNGKHRANSSGRSRRERQYSVCNSEDSPGSCEILYFNMGSPDQLMVHKGKCIGSDEQLGKLVYNALETATGGFVLLYEWVLQWQKKMGPFLTSQEKEKIDKCKKQIQGTETEFNSLVKLSHPNVVRYLAMNLKEQDDSIVVDILVEHISGVSLAAHLSHSGPIPVHQLRRYTAQLLSGLDYLHSNSVVHKVLSASNVLVDAEGTVKITDYSISKRLADICKEDVFEQTRVRFSDNALPYKTGKKGDVWRLGLLLLSLSQGQECGEYPVTIPSDLPADFQDFLKKCVCLDDKERWSPQQLLKHSFINPQPKMPLVEQSPEDSEGQDYVETVIPSNRLPSAAFFSETQRQFSRYFIEFEELQLLGKGAFGAVIKVQNKLDGCCYAVRRIPINPASRQFRRIKGEVTLLSRLHHENIVRYYNAWIERHERPAGPGTPPPDSGPLAKDDRAARGQPASDTDGLDSVEAAAPPPILSSSVEWSTSGERSASARFPATGPGSSDDEDDDEDEHGGVFSQSFLPASDSESDIIFDNEDENSKSQNQDEDCNEKNGCHESEPSVTTEAVHYLYIQMEYCEKSTLRDTIDQGLYRDTVRLWRLFREILDGLAYIHEKGMIHRDLKPVNIFLDSDDHVKIGDFGLATDHLAFSADSKQDDQTGDLIKSDPSGHLTGMVGTALYVSPEVQGSTKSAYNQKVDLFSLGIIFFEMSYHPMVTASERIFVLNQLRDPTSPKFPEDFDDGEHAKQKSVISWLLNHDPAKRPTATELLKSELLPPPQMEESELHEVLHHTLTNVDGKAYRTMMAQIFSQRISPAIDYTYDSDILKGNFSIRTAKMQQHVCETIIRIFKRHGAVQLCTPLLLPRNRQIYEHNEAALFMDHSGMLVMLPFDLRIPFARYVARNNILNLKRYCIERVFRPRKLDRFHPKELLECAFDIVTSTTNSFLPTAEIIYTIYEIIQEFPALQERNYSIYLNHTMLLKAILLHCGIPEDKLSQVYIILYDAVTEKLTRREVEAKFCNLSLSSNSLCRLYKFIEQKGDLQDLMPTINSLIKQKTGIAQLVKYGLKDLEEVVGLLKKLGIKLQVLINLGLVYKVQQHNGIIFQFVAFIKRRQRAVPEILAAGGRYDLLIPQFRGPQALGPVPTAIGVSIAIDKISAAVLNMEESVTISSCDLLVVSVGQMSMSRAINLTQKLWTAGITAEIMYDWSQSQEELQEYCRHHEITYVALVSDKEGSHVKVKSFEKERQTEKRVLETELVDHVLQKLRTKVTDERNGREASDNLAVQNLKGSFSNASGLFEIHGATVVPIVSVLAPEKLSASTRRRYETQVQTRLQTSLANLHQKSSEIEILAVDLPKETILQFLSLEWDADEQAFNTTVKQLLSRLPKQRYLKLVCDEIYNIKVEKKVSVLFLYSYRDDYYRILF
Turning to B1, the stoichiometry N (usually the number of molecules, sites or subunits per partner or assembly) amounted to 2.

(Values after paper doi:10.1101/2024.08.14.606984 (bioRxiv, 2024).)
